{"source": "patent US20180318386A1", "about": "“PEPTIDES AND METHODS OF TREATING ENDOMETRIOSIS USING THE SAME” (BIOINCEPT, LLC, priority 2014, published 2018)", "assay_in_all_cases": "PIF affinity resin pull-down, CD14+ cell lysate, LC-MS/MS count", "key": {"[1]": {"biological_target": "14-3-3 protein zeta/delta (human) (UniProt P63104)", "sequence (P63104 whole entry, stated change not applied)": "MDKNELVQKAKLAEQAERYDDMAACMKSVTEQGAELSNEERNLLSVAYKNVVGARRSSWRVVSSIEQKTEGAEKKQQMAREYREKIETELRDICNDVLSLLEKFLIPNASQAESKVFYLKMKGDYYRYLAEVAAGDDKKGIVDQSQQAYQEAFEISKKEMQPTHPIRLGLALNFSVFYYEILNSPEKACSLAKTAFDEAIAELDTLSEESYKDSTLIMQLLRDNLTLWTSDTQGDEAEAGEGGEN"}, "Plastin-2 (human)": {"biological_target": "Plastin-2 (human) (UniProt P13796)"}, "[2]": {"biological_target": "14-3-3 protein eta (human) (UniProt Q04917)", "sequence (Q04917 2-246 limits assumed)": "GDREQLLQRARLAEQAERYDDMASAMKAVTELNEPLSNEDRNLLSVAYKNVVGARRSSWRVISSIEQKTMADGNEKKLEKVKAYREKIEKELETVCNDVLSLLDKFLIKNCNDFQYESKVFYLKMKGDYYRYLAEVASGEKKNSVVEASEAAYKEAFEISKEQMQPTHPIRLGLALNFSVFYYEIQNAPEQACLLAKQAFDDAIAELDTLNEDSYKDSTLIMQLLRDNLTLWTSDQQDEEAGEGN"}, "[3]": {"biological_target": "Isoform Short of 14-3-3 protein beta/alpha (human) (UniProt P31946)", "sequence (P31946 3-246 limits assumed)": "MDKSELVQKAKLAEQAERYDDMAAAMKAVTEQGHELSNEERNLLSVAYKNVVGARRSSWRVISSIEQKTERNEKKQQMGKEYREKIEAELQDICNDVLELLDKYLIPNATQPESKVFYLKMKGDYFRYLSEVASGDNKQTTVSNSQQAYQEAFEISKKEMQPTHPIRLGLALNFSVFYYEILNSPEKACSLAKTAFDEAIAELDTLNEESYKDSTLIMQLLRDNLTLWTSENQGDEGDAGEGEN"}, "Histone H4 (human)": {"biological_target": "Histone H4 (human) (UniProt P62805)"}, "[4]": {"biological_target": "Isoform H14 of Myeloperoxidase (human) (UniProt P05164)", "sequence (P05164 165-745 limits assumed)": "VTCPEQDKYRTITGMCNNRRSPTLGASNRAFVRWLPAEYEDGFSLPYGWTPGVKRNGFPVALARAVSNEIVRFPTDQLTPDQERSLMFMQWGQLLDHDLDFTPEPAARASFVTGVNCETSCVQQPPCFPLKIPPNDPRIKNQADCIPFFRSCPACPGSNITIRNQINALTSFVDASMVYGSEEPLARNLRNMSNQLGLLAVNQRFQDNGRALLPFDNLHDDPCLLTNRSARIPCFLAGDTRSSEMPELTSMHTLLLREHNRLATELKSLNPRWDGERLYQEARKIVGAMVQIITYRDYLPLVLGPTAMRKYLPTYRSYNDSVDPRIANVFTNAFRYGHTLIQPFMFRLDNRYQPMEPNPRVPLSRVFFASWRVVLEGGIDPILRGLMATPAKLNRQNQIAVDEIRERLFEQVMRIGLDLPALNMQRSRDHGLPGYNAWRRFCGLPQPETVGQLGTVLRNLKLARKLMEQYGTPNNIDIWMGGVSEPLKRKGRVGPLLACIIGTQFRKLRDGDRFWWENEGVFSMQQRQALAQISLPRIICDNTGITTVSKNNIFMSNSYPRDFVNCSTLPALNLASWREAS"}, "[5]": {"biological_target": "Histone-binding protein RBBP7 (human) (UniProt Q16576)", "sequence (Q16576 2-425 limits assumed)": "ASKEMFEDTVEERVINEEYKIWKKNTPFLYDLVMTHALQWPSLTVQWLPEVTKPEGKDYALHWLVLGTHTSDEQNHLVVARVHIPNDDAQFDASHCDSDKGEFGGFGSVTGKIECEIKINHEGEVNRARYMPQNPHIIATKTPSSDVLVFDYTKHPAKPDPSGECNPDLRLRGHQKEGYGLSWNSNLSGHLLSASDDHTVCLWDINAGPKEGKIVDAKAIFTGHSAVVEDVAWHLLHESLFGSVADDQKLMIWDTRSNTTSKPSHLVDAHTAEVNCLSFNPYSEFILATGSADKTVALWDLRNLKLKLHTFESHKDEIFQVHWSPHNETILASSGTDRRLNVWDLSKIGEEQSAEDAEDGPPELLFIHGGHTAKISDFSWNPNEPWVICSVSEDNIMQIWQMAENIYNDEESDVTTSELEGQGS"}, "[6]": {"biological_target": "Isoform 2 of Adenylyl cyclase-associated protein 1 (human) (UniProt Q01518)"}, "Talin-1 (human)": {"biological_target": "Talin-1 (human) (UniProt Q9Y490)"}, "[7]": {"biological_target": "Heat shock protein HSP 90-beta (human) (UniProt P08238)"}, "Annexin A1 (human)": {"biological_target": "Annexin A1 (human) (UniProt P04083)", "sequence (P04083 2-346 limits assumed)": "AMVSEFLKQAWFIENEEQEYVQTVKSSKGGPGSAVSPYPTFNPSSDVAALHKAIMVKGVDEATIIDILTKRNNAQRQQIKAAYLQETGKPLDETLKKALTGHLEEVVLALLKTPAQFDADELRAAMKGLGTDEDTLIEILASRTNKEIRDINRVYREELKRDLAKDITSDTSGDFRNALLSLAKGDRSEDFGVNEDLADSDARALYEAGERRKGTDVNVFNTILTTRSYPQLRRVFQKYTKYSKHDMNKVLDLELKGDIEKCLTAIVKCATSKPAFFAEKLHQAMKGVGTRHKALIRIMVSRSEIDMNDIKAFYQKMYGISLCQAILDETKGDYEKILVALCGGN"}, "Coronin-1A (human)": {"biological_target": "Coronin-1A (human) (UniProt P31146)", "sequence (P31146 2-461 limits assumed)": "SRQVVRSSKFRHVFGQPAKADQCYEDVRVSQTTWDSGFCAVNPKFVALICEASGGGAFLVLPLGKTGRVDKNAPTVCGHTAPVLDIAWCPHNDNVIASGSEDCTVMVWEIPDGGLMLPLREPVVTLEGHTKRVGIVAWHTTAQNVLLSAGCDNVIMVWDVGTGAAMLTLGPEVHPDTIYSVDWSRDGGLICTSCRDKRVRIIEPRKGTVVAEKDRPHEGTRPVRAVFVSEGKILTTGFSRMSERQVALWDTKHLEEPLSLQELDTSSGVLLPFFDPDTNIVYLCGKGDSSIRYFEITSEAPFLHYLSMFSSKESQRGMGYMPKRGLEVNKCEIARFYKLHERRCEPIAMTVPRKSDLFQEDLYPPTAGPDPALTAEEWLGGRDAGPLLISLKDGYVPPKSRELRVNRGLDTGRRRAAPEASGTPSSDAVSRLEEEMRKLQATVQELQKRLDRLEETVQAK"}, "[8]": {"biological_target": "Protein disulfide-isomerase (human) (UniProt P07237)", "sequence (P07237 18-508 limits assumed)": "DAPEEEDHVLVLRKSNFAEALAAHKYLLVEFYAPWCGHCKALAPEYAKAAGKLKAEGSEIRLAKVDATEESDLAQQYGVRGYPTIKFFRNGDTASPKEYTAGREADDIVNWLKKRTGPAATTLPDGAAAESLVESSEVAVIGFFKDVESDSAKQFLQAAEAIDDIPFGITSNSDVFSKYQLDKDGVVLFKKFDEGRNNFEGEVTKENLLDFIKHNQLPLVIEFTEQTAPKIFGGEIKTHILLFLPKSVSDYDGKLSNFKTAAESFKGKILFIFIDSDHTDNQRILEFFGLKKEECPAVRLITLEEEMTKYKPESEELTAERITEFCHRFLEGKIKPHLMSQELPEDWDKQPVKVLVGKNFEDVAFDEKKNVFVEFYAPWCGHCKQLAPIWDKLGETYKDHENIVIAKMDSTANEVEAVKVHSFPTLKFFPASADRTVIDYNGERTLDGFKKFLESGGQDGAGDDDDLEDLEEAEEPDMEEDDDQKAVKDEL"}, "Vimentin (human)": {"biological_target": "Vimentin (human) (UniProt P08670)", "sequence (P08670 2-466 limits assumed)": "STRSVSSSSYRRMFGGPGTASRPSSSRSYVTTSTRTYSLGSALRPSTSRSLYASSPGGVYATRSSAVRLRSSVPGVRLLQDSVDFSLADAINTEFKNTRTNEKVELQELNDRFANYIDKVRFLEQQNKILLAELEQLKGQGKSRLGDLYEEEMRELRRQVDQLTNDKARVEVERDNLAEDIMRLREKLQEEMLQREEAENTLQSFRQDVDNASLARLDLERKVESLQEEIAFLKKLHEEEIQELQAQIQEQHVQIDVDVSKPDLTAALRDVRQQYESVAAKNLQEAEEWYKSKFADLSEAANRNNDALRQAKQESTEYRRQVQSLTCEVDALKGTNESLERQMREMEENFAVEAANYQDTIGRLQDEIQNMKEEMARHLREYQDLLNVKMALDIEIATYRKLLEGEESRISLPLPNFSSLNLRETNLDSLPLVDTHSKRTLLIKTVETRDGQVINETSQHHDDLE"}, "[9]": {"biological_target": "Isoform 1 of Vinculin (human) (UniProt P18206)", "sequence (P18206 other isoform, or with tags, fused parts or gaps limits assumed)": "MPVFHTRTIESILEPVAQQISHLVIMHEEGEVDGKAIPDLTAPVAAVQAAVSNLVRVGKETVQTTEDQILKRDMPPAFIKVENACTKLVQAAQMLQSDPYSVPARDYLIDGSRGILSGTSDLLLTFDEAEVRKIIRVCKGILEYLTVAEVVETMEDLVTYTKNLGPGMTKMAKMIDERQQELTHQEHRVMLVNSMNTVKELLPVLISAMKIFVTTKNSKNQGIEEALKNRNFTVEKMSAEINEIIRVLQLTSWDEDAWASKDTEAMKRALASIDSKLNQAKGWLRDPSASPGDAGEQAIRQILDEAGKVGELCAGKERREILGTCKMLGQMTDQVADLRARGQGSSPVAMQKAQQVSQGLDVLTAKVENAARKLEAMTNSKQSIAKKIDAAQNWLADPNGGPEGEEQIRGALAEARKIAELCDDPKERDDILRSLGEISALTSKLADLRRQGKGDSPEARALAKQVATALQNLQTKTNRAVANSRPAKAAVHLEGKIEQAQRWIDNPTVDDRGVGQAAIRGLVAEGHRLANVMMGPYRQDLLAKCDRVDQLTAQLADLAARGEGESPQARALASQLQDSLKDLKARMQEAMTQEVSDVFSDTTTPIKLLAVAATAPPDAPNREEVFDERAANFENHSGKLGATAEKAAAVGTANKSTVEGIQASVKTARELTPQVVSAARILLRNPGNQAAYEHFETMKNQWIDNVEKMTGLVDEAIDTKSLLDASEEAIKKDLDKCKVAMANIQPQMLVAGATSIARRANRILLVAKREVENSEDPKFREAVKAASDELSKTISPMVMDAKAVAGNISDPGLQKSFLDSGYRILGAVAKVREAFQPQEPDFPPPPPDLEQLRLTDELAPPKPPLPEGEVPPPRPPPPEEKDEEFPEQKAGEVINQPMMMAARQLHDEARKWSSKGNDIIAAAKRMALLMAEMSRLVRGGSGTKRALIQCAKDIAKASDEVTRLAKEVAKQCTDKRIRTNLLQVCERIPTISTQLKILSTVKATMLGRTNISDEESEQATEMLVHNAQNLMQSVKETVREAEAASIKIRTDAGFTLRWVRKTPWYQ"}, "[10]": {"biological_target": "14-3-3 protein gamma (human) (UniProt P61981)", "sequence (P61981 2-247 limits assumed)": "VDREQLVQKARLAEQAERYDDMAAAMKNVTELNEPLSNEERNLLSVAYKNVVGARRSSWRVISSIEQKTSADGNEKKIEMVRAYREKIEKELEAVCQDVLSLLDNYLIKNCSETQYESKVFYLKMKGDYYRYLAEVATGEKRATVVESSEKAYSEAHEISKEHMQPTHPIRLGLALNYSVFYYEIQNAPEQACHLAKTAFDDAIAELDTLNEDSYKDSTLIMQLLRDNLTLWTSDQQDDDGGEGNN"}}}
{"substance": "PIF15 affinity resin (Cys-C6 spacer-PIF15 conjugated to agarose) (peptide)", "values": [{"measurement": "Ave", "setting": "[1]", "result": 4}, {"measurement": "Inject 1", "setting": "[1]", "result": 4}, {"measurement": "Inject 2", "setting": "[1]", "result": 3}, {"measurement": "Inject 3", "setting": "[1]", "result": 4}, {"measurement": "Ave", "setting": "Plastin-2 (human)", "result": 1}, {"measurement": "Inject 1", "setting": "Plastin-2 (human)", "result": 1}, {"measurement": "Inject 2", "setting": "Plastin-2 (human)", "result": 1}, {"measurement": "Inject 3", "setting": "Plastin-2 (human)", "result": 2}, {"measurement": "Ave", "setting": "[2]", "result": 1}, {"measurement": "Inject 1", "setting": "[2]", "result": 1}, {"measurement": "Inject 2", "setting": "[2]", "result": 1}, {"measurement": "Inject 3", "setting": "[2]", "result": 2}, {"measurement": "Ave", "setting": "[3]", "result": 3}, {"measurement": "Inject 1", "setting": "[3]", "result": 3}, {"measurement": "Inject 2", "setting": "[3]", "result": 3}, {"measurement": "Inject 3", "setting": "[3]", "result": 4}, {"measurement": "Ave", "setting": "Histone H4 (human)", "result": 2}, {"measurement": "Inject 1", "setting": "Histone H4 (human)", "result": 3}, {"measurement": "Inject 2", "setting": "Histone H4 (human)", "result": 0}, {"measurement": "Inject 3", "setting": "Histone H4 (human)", "result": 2}, {"measurement": "Ave", "setting": "[4]", "result": 2}, {"measurement": "Inject 1", "setting": "[4]", "result": 2}, {"measurement": "Inject 2", "setting": "[4]", "result": 2}, {"measurement": "Inject 3", "setting": "[4]", "result": 2}, {"measurement": "Ave", "setting": "[5]", "result": 1}, {"measurement": "Inject 1", "setting": "[5]", "result": 2}, {"measurement": "Inject 2", "setting": "[5]", "result": 0}, {"measurement": "Inject 3", "setting": "[5]", "result": 1}, {"measurement": "Ave", "setting": "[6]", "result": 3}, {"measurement": "Inject 1", "setting": "[6]", "result": 4}, {"measurement": "Inject 2", "setting": "[6]", "result": 3}, {"measurement": "Inject 3", "setting": "[6]", "result": 2}, {"measurement": "Ave", "setting": "Talin-1 (human)", "result": 6}, {"measurement": "Inject 1", "setting": "Talin-1 (human)", "result": 5}, {"measurement": "Inject 2", "setting": "Talin-1 (human)", "result": 6}, {"measurement": "Inject 3", "setting": "Talin-1 (human)", "result": 8}, {"measurement": "Ave", "setting": "[7]", "result": 1}, {"measurement": "Inject 1", "setting": "[7]", "result": 2}, {"measurement": "Inject 2", "setting": "[7]", "result": 1}, {"measurement": "Inject 3", "setting": "[7]", "result": 1}, {"measurement": "Ave", "setting": "Annexin A1 (human)", "result": 1}, {"measurement": "Inject 1", "setting": "Annexin A1 (human)", "result": 0}, {"measurement": "Inject 2", "setting": "Annexin A1 (human)", "result": 0}, {"measurement": "Inject 3", "setting": "Annexin A1 (human)", "result": 2}, {"measurement": "Ave", "setting": "Coronin-1A (human)", "result": 2}, {"measurement": "Inject 1", "setting": "Coronin-1A (human)", "result": 2}, {"measurement": "Inject 2", "setting": "Coronin-1A (human)", "result": 2}, {"measurement": "Inject 3", "setting": "Coronin-1A (human)", "result": 1}, {"measurement": "Ave", "setting": "[8]", "result": 2}, {"measurement": "Inject 1", "setting": "[8]", "result": 3}, {"measurement": "Inject 2", "setting": "[8]", "result": 2}, {"measurement": "Inject 3", "setting": "[8]", "result": 2}, {"measurement": "Ave", "setting": "Vimentin (human)", "result": 10}, {"measurement": "Inject 1", "setting": "Vimentin (human)", "result": 9}, {"measurement": "Inject 2", "setting": "Vimentin (human)", "result": 11}, {"measurement": "Inject 3", "setting": "Vimentin (human)", "result": 9}, {"measurement": "Ave", "setting": "[9]", "result": 3}, {"measurement": "Inject 1", "setting": "[9]", "result": 3}, {"measurement": "Inject 2", "setting": "[9]", "result": 2}, {"measurement": "Inject 3", "setting": "[9]", "result": 3}, {"measurement": "Ave", "setting": "[10]", "result": 3}, {"measurement": "Inject 1", "setting": "[10]", "result": 3}, {"measurement": "Inject 2", "setting": "[10]", "result": 3}, {"measurement": "Inject 3", "setting": "[10]", "result": 3}]}
